In the supplement of paper PMC7877785:
± gives the uncertainty stated by the source.

Assay: self-splicing fitness, log relative to wild type (ln ratio); higher = more splicing; Tetrahymena group I intron in knt gene, E. coli kanamycin selection, DiMSum; sequences stand for … in CUCUCU…GGAGGGAAAAGUUAUCAGGCAUGCACCUGGUAGCUAGUCUUUAAACCAAUAGAUUGCAUCGGUUUAAAAGGCAAGACCGUCAAAUUGCGGGAAAGGGGUCAACAGCCGUUCAGUACCAAGUCUCAGGGGAAACUUUGAGAUGGCCUUGCAAAGGGUAUGGUAAUAAGCUGACGGACAUGGUCCUAACCACGCAGCCAAGUCCUAAGUCAACAGAUCUUCUGUUGAUAUGGAUGCAGUUCACAGACUAAAUGUCGGUCGGGGAAGAUGUAUUCUUCUCAUAAGAUAUAGUCGGACCUCUCCUUAAUGGGAGCUAGCGGAUGAAGUGAUGCAACACUGGAGCCGCUGGGAACUAAUUUGUAUGCGAAAGUAUAUUGAUUAGUUUUGGAGUACUCGUGGUCG
Outline: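 A randomised library covering all eight P1ex-region intron nucleotides was built with the intron in the knt kanamycin-resistance gene on pET-22b(+) and held in E. coli BL21(DE3). Cells were grown overnight at 37°C or 30°C on LB agar, with or without 25 μg/mL kanamycin, plus 100 μg/mL carbenicillin, 50 μM IPTG and 0.2% rhamnose, and pooled colonies were amplicon-sequenced on an Illumina HiSeq 2500. DiMSum fitness is the error-weighted combination of wild-type-normalised replicate fold changes, kanamycin versus none.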

Sequence	self-splicing fitness (ln) (30 °C)	self-splicing fitness (ln) (37 °C)
CCUCAGCAAUAUUACGUCAA	-4.15 ± 0.31	-3.11 ± 0.29
CCUCAGCAAUAUUACGUGGG	-4.89 ± 0.25	-3.15 ± 0.19
CCUCAGCAAUAUUACGUUCU	-4.28 ± 0.34	-3.23 ± 0.36
CCUGAGCAAUAUUACGAACG	-2.81 ± 0.26	-1.48 ± 0.27
CCUGAGCAAUAUUACGACGC	-3.08 ± 0.47	-0.889 ± 0.22
CCUGAGCAAUAUUACGACUA	-2.81 ± 0.25	-1.79 ± 0.24
CCUGAGCAAUAUUACGCAGC	–	-1.38 ± 0.3
CCUGAGCAAUAUUACGCGGU	-3.87 ± 0.21	-1.54 ± 0.16
CCUGAGCAAUAUUACGCUAG	-3.02 ± 0.19	-1.27 ± 0.17
CCUGAGCAAUAUUACGCUCU	-3.59 ± 0.43	-2.26 ± 0.25
CCUGAGCAAUAUUACGCUGU	-4.99 ± 0.46	-2.85 ± 0.23
CCUGAGCAAUAUUACGGACG	-2.49 ± 0.16	-0.682 ± 0.12
CCUGAGCAAUAUUACGGAUU	-2.74 ± 0.18	-2.34 ± 0.16
CCUGAGCAAUAUUACGGCCU	-2.68 ± 0.17	-2.96 ± 0.3
CCUGAGCAAUAUUACGGGGG	-3.15 ± 0.16	-1.55 ± 0.22
CCUGAGCAAUAUUACGUAGA	-3.23 ± 0.13	-2.26 ± 0.14
CCUGAGCAAUAUUACGUAUC	–	-2.46 ± 0.23
CCUGAGCAAUAUUACGUGCA	-3.09 ± 0.21	-1.53 ± 0.26
CCUGAGCAAUAUUACGUGCG	-3.69 ± 0.22	-1.04 ± 0.16
CCUGAGCAAUAUUACGUUAG	-3.86 ± 0.17	-2.29 ± 0.12
CCUUAGCAAUAUUACGAAAG	-1.96 ± 0.11	-1.45 ± 0.089
CCUUAGCAAUAUUACGAGAG	-2.05 ± 0.11	-1.42 ± 0.1
CCUUAGCAAUAUUACGAGGG	-3.54 ± 0.24	-1.39 ± 0.21
CCUUAGCAAUAUUACGAGUA	-2.81 ± 0.29	-2.42 ± 0.26
CCUUAGCAAUAUUACGAUGG	-2.24 ± 0.13	-2.26 ± 0.16

Sequence	self-splicing fitness (ln) (30 °C)	self-splicing fitness (ln) (37 °C)
CCUUAGCAAUAUUACGCACG	-2.02 ± 0.35	–
CCUUAGCAAUAUUACGCAGA	-3.11 ± 0.36	-2.72 ± 0.3
CCUUAGCAAUAUUACGCGCC	-2.8 ± 0.4	–
CCUUAGCAAUAUUACGGCAU	-3.41 ± 0.19	-2.88 ± 0.32
CCUUAGCAAUAUUACGUAAU	-3.24 ± 0.29	-1.81 ± 0.16
CCUUAGCAAUAUUACGUCAG	-3.79 ± 0.35	-2.74 ± 0.31
CCUUAGCAAUAUUACGUCUG	-2.99 ± 0.1	-1.48 ± 0.096
CCUUAGCAAUAUUACGUGAG	-1.35 ± 0.068	0.0439 ± 0.088
CCUUAGCAAUAUUACGUGAU	-3.66 ± 0.2	-2 ± 0.24
CCUUAGCAAUAUUACGUUAC	-3.65 ± 0.35	-2.91 ± 0.29
CGAAAGCAAUAUUACGAUAA	-2.44 ± 0.17	-0.695 ± 0.12
CGAAAGCAAUAUUACGAUGC	-2.67 ± 0.39	-1.35 ± 0.27
CGAAAGCAAUAUUACGAUUU	-2.12 ± 0.09	-0.815 ± 0.099
CGAAAGCAAUAUUACGCCCG	-1.9 ± 0.18	-0.623 ± 0.21
CGAAAGCAAUAUUACGCCGA	-1.99 ± 0.24	-0.323 ± 0.15
CGAAAGCAAUAUUACGCUAG	-2.3 ± 0.12	-1.57 ± 0.12
CGAAAGCAAUAUUACGCUUG	-2.51 ± 0.087	-2.15 ± 0.091
CGAAAGCAAUAUUACGGAAG	-0.208 ± 0.097	-0.546 ± 0.11
CGAAAGCAAUAUUACGGACC	-0.938 ± 0.11	0.398 ± 0.13
CGAAAGCAAUAUUACGGAGU	-3.55 ± 0.19	-2.42 ± 0.17
CGAAAGCAAUAUUACGGCAC	-2.6 ± 0.15	0.387 ± 0.21
CGAAAGCAAUAUUACGGCGA	-0.763 ± 0.11	-0.486 ± 0.11
CGAAAGCAAUAUUACGGCUU	-4.2 ± 0.22	-2.79 ± 0.3
CGAAAGCAAUAUUACGGGGG	-2.85 ± 0.14	-1.96 ± 0.13
